Results reported in patent publication US20040105855A1 (Bristol-Myers Squibb, published 2004).

Legend:
[1] = target: T1, hu4-1BBIg fusion protein (extracellular domain of H4-1BB fused to the constant domains of a human IgG1 … (human, UniProt Q07011 24-186; P01857 99-330 = IgG part); test: SPR BIAcore 3000, antibody 10-100 nM over low-density immobilized H4-1BB (557 RU), global fit, Bivalent Analyte Model (KA1)
T1 construct: extracellular domain;domain: constant domains of a human IgG1 antibody; also called immobilized H4-1BB; Human 4-1BB receptor; not shown: thrombin cleavage site between the 4-1BB and Ig portions
T1 sequence (Q07011 other isoform, or with tags, fused parts or gaps): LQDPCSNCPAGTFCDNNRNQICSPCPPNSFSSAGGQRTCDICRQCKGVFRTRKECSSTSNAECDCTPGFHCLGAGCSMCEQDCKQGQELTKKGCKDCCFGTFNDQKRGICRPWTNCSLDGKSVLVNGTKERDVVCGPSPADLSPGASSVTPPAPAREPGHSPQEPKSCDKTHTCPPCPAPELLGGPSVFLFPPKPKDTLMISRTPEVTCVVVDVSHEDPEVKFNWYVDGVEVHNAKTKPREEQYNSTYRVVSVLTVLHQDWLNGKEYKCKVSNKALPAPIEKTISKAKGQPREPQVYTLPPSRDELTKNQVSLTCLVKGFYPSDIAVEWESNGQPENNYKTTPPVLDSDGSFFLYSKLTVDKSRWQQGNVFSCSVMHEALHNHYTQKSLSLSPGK
Protocol: (§1) These studies were carried out on a BIAcore 3000 instrument (BIAcore Inc., Piscataway, N.J.). Dilutions of the antibodies were injected under identical conditions over sensorchip surfaces of immobilized H4-1BB.
(§2) Human 4-1BB receptor was immobilized covalently to a low density on a carboxy-methylated dextran surface of a BIAcore sensorchip (BIAcore Inc., Piscataway, N.J.). Through primary amino groups the fusion protein, injected at 2 μg/mL in 10 mM acetate buffer, pH 5.0, bind to an EDC/NHS-activated surface. […] After regenerating with 10 mM glycine, pH 2.0 the surface was ready for binding studies. Antibodies 39E3 and hu39E3.G4 were diluted to concentrations between 10 nM and 100 nM using HBS-EP buffer. All mAb dilutions were injected over two flow cells (FC) at a flow rate of 25 μl/minute. FC1 served as a negative control, FC2 had low density of human 4-1BB (557 RU). Bound anti-human 4-1BB mAbs were removed by regeneration with 10 mM Glycine pH 1.75.
(§3) Kinetic parameters were calculated with BIAevaluation program (version 3.1) (BIAcore Inc., Piscataway, N.J.). A global curve fit analysis was performed using a Bivalent Analyte Model (BIAcore Inc. Piscataway, N.J.). […] The binding affinities for the parental mAb, 39E3, and the humanized anti-H4-1BB mAb are shown below in Table 3.

[2] = target: T1, hu4-1BBIg fusion protein (extracellular …); test: SPR BIAcore 3000, antibody 10-100 nM over low-density immobilized H4-1BB (557 RU), global fit, Bivalent Analyte Model (KD1)
Protocol: as §1, §2, §3

[3] = target: T1, hu4-1BBIg fusion protein (extracellular …); test: SPR BIAcore 3000, antibody 10-100 nM over low-density immobilized H4-1BB (557 RU), global fit, Bivalent Analyte Model (Ka1)
Protocol: as §1, §2, §3

[4] = target: T1, hu4-1BBIg fusion protein (extracellular …); test: SPR BIAcore 3000, antibody 10-100 nM over low-density immobilized H4-1BB (557 RU), global fit, Bivalent Analyte Model (Kd1)
Protocol: as §1, §2, §3

B1: hu39E3.G4 (humanized 39E3, IgG4) (antibody, V domains shown)
VH: EVQLVESGGGLVQPGGSLRLSCAASGFTFSDYWMSWVRQAPGKGLEWVADIKNDGSYTNYAPSLTNRFTISRDNAKNSLYLQMNSLRAEDTAVYYCARELTGTWGQGTMVTVSS
VL: DIVMTQSPDSLAVSLGERATINCKSSQSLLSSGNQKNYLAWYQQKPGQPPKLLIYYASTRQSGVPDRFSGSGSGTDFTLTISSLQAEDVAVYYCLQYDRYPFTFGQGTKLEIKR
notes: Humanized IgG4 with a hinge mutation (after Angal et al.), made in CHO DG-44; also called humanized 39E3.G4 antibody; humanized anti-H4-1BB mAb
- Ka [1]: 1.87e+08 M⁻¹
- Kd [2]: 5.3 nM
- kon [3]: 4740 M⁻¹ s⁻¹
- koff [4]: 2.53e-05 s⁻¹

B2: mAb 39E3 (parental rat anti-human 4-1BB monoclonal antibody) (antibody, V domains shown)
VH: EVQLVESGGGLVKPGASLKLSCVASGFTFSDYWMSWVRQTPGKTMEWIGDIKNDGSYTNYAPSLTNRFTISRDNARSTLYLQMNNVRSEDTATYYCTRELTGT
VL: DIIMTQSPFSLAVSEGEMVTMNCKSSQSLLSSGNQKNYLAWYQQKPGQPPELLIYYASTRQSGVPDRFIGSGSGTDFLTLTISDVQAEDLADYYCLQYDRYPFT
notes: constant regions are not; also called parental antibody; parental mAb
- Ka [1]: 1.48e+08 M⁻¹
- Kd [2]: 6.7 nM
- kon [3]: 7070 M⁻¹ s⁻¹
- koff [4]: 4.77e-05 s⁻¹
